Test results from publication PMC5415421.

Target: WDR74 isoform II, C-terminal GFP (human)
Assay: co-IP

relative amount of NVL2 bound to the resin: 9.2%
B1: Full-length mouse NVL2 (1–855), N-terminal One-Strep-Flag tag (enzyme)
chain: MKPRPGVFVDRKLKQRVIQYLSSNRCGKYVDTGILASDLQRLYSVDYGRRKRNAFRIQVEKVFSIISSEKELKNLKELEDGHLAKRARQDEEDEYTESYSDDDSNMEDYPDPQSANPMNSSLLSLYRRGNSESVSTTPKWGQREATTSTPLLTSKTGSVPLKTPARESEGGWFIDKTPGGKKESLPLDLSDDQSNSKKQDSEIQILKDSSLLESDKKRKGRAKGKGNKRKTENLQEVDGEIEALLQKKAKARSTELQISNVKFEDVGGNDATLKEVCKMLIHMRHPEVYQHLGVVPPRGVLLHGPPGCGKTLLAHAIAGELDLPILKVAAPEIVSGVSGESEQKLRELFDQAVSNAPCIVFIDEIDAITPKREVASKDMERRIVAQLLTCMDDLNNVAATARVLVIGATNRPDSLDPALRRAGRFDREVCLGIPDEAARERILQTLCRKLRLPETFNFCHLAHLTPGFVGADLMALCREAAMCAVNRVLMKQQAQQKKKPEIEGLPSEGDQEERLGAEPTSETQDELQRLLGLLRDQDPLSEEQMQGLCIELNDFIVALAEVQPSAKREGFVTVPNVTWADIGALEDIRDELIMAILAPVRNPDQFRTLGLGTPAGILLAGPPGCGKTLLAKAVANESGLNFISVKGPELLNMYVGESERAVRQVFQRAKNSAPCVIFFDEVDALCPRRSDRETGASVRVVNQLLTEMDGLETRQQVFILAATNRPDIIDPAILRPGRLDKTLFVGLPPPADRVAILKTITKNGTKPPLDEDVNLETIANDLRCNCYTGADLTALVREASLCALRQEITAQKNGVGAGELKVSHKHFEDAFKKVKPSISIKDQVMYEALQRSLSQ
